Data reported in US20070077578A1, “Diagnosis of (a risk of ) disease and monitoring of therapy” (PrimaGen Holding B.V., priority 2004, published 2007).

Test system: AC133
Assay: AC133 expression per 10,000 cells (quantified by U1A) in patients treated with GCSF
Assay type: in vivo, human
Details: two patients treated with GCSF, compared to volunteers and all the other patients
Experimental: Isolation of nucleic acids from PBMC and NASBA amplification were performed as described in Example 2 with one modification: U1A was used instead of Beta Actin.
Two samples of patients who have been subjected to treatment with GCSF were tested. GCSF mobilizes stem cells from the bone marrow, so it is expected to find more AC133-expressing cells in the blood after a treatment with GCSF. It is clear from FIG. 16 that the AC133 expression in these two patients is much higher compared to volunteers and all the other patients.

B1: GCSF: mobilizes stem cells from the bone marrow (protein, UniProt P09919 31-207, looked up)
Granulocyte …: TPLGPASSLPQSFLLKCLEQVRKIQGDGAALQEKLVSECATYKLCHPEELVLLGHSLGIPWAPLSSCPSQALQLAGCLSQLHSGLFLYQGLLQALEGISPELGPTLDTLQLDVADFATTIWQQMEELGMAPALQPTQGAMPAFASAFQRRAGGVLVASHLQSFLEVSYRVLRHLAQP
- AC133 expression per 10,000 cells: much higher
